Measured values published in the supplement of paper PMC7125110.
± gives the standard error. Variants at the floor of the assay were thinned out.

B1: glmS ribozyme (parent)
chain: AUAAAAGCGCCAGAACUACAGAAAUGUAGUUGACGAGGAGGAGGUUUAUCGAAUUUUCGGCGGAUGCCUCCAAA

Variants of: B1
Assay: self-cleavage kobs at 10000 uM GlcN6P; higher = faster cleavage; RNA array
Details: with glucosamine-6-phosphate
Summary of the method: (§1)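 The measurements used barcoded ribozyme variants on sequenced MiSeq chips, transcribed in situ by E. coli RNA polymerase and tracked at 37 °C with a hybridised Cy3 probe. Glucosamine-6-phosphate, 40 μM to 10 mM in HEPES/KCl/Mg(OAc)2 buffer, was flowed in while tiles were imaged over ~14 h. Baseline-normalised signals, also normalised to non-cleaving reference variants, gave per-tile medians that were fit to one- or two-exponential decays for kobs. kcat and KM resulted from weighted Michaelis–Menten fits across concentrations.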

Variant | self-cleavage kobs at 10000 uM GlcN6P [s⁻¹]
C8U G40U C61U C67U | < 1e-05
G7U C61U C70A | < 1e-05
A12C C16G U49A C68A | < 1e-05
C11U U55G U65A | 4.36e-05 ± 2e-05
A6U A14U G29U | < 1e-05
C11U A15G C16U C50G U54G U56A U69C | < 1e-05
C50G U57C C71G | 9.26e-05 ± 3.1e-05
A6C G32U C50A | < 1e-05
C8U U45A A48G C70G | < 1e-05
A52G U55A | 0.00185 ± 0.00032
G9U G35C A42C | < 1e-05
A12C A15U U31C | 6.96e-05 ± 1.7e-05
G7C G62C | < 1e-05
G41A C70A | 0.00019 ± 2.6e-05
G7A G29C U47G A53G | < 1e-05
C11G A14C G43U | < 1e-05
C11G A33G G40U C70U | < 1e-05
G7C G29A | < 1e-05
G7U C8G C16A | < 1e-05
A6C G59A G66A | < 1e-05
A6G G9U G35U G38A G40A | < 1e-05
C11U A15G A52G | 0.0001 ± 2.4e-05
C11G A12G G32C U57C | < 1e-05
C8G A14C C68G | < 1e-05
C10U G43A C71U | < 1e-05
A6U G7U G9C | < 1e-05

Variant | self-cleavage kobs at 10000 uM GlcN6P [s⁻¹]
G7U A15U C50G A53U U55G G62U | 7.67e-05 ± 2.5e-05
G7A C71U | 3.82e-05 ± 1e-05
C8A G35U G44U A52G | < 1e-05
C11U A36C A39G U45G C61U | < 1e-05
G7C A15C G41A | < 1e-05
C10G G40U U46C C71U | < 1e-05
C11U A52G G63C U69G | 8.28e-05 ± 1.9e-05
G9A G60U C70G | < 1e-05
A6U A12U C16U A36G | < 1e-05
C8G A15C G40A G41U C50U C70G | < 1e-05
A1U U2G A3G C8G C34G | < 1e-05
C10U U30A C68U | < 1e-05
C11G G60U U69G | < 1e-05
G9U G41U C58A G60C | < 1e-05
G7U A15C A36G | < 1e-05
G51U G59C G66U | < 1e-05
C8U C10U G13C C50G G51U A52C C71A | < 1e-05
C11A U45A U46G | 0.000161 ± 4e-05
A6G C10A U30C U49A | < 1e-05
C8U A48U C71U | < 1e-05
C11U A12G U45G C67A | 5.25e-05 ± 1.6e-05
C10U G13C G63U | < 1e-05
G7U G29C A48G C50G C71A | 0.00097 ± 0.00047
A6G C16A G37C U69C | < 1e-05
C8U U57A U69G | 0.000575 ± 0.00016
U46G U55C G66A | 0.00269 ± 0.00067

Variant | self-cleavage kobs at 10000 uM GlcN6P [s⁻¹]
G7U G9U G44A C68G | < 1e-05
A6G C58U A64U | < 1e-05
C8U G9U G37A C67G | < 1e-05
U55G C70U C71G | 0.000142 ± 3.8e-05
A12C G13C G32A A39U | 5.7e-05 ± 1e-05
G9A G43A U57A U65A U69A C71A | < 1e-05
G9C C11U C61G | 0.000219 ± 4.5e-05
G7C C10U G60U | < 1e-05
A6C C16U G29C C58A | < 1e-05
C10G A42C U69G | < 1e-05
C11U U31G U54A | 0.0029 ± 0.0008
A6C U31A G44A U65A | < 1e-05
G7C C50G C61A | 4e-05 ± 1.9e-05
C8A C16U U31C G37U A39U A42U A48U | < 1e-05
G41A G63U C70U | < 1e-05
G7C G9U A14G | < 1e-05
C10A A12G A52G C70A | 6.91e-05 ± 1.7e-05
G7A A39U G43U | < 1e-05
A4U A39G C70A | 0.000171 ± 4.7e-05
C8A C34A A64G | < 1e-05
C10A A14C U30G | < 1e-05
G7A G41A A53C | < 1e-05
C10A G37C G51A | < 1e-05
C10G C11G U55C G60A | < 1e-05
A6G U55G C70U | 8.99e-05 ± 1.5e-05
C11U U45A | 0.002 ± 0.00051

Variant | self-cleavage kobs at 10000 uM GlcN6P [s⁻¹]
A6G C34A A42U U54G | < 1e-05
C10U G37C G43C U47C | < 1e-05
A6C U31C U45A U57G | < 1e-05
C11U G29A A39C | 3.89e-05 ± 1.6e-05
G7A C34U A42C | < 1e-05
C8A A14U A15G G29A | < 1e-05
U2C C11U G59U | 0.000103 ± 2.1e-05
G9U A15C G62A | < 1e-05
A6U C10U G44A C50U | < 1e-05
C10U G13C G51A A53U A64G G66A | < 1e-05
C10G C11A G38C G43U G51C U56C G60C | < 1e-05
C8G G9U G66C C68G | < 1e-05
C8G C16U A53G C61U | < 1e-05
G7A G29A G38A G44U A48G G66U | < 1e-05
A64G U65C | 0.000113 ± 1.6e-05
A6C G7C G35A C68G | < 1e-05
C11A A42U G51U G60C | < 1e-05
G7U C50G G51A C70G | 6.12e-05 ± 1.7e-05
G7C G41A C61U | < 1e-05
C11A G40A U55G C71G | < 1e-05
C8U U30G A39G G43U | < 1e-05
G7C G35U G38U | < 1e-05
G7C C34A A48G U56G C71U | < 1e-05

Variants of: B1
Assay: self-cleavage kobs at 2500 uM GlcN6P; higher = faster cleavage; RNA array
Details: with glucosamine-6-phosphate
Summary of the method: as §1

Variant | self-cleavage kobs at 2500 uM GlcN6P [s⁻¹]
U46A A53U C68U | 0.000125 ± 6.3e-05
G41U A53U G60U C61A G66U | < 1e-05
U49C U55C C70G | < 1e-05
U45A U46A | 0.0043 ± 0.0021
C50G U57C C71G | 0.000255 ± 0.00012
U47A A53U U65A | 0.00126 ± 0.00036
A52G G62A G63U U69G | 0.000139 ± 4.7e-05
A52G U55A | 0.000757 ± 0.00015
U46G C50G C68G | 4.12e-05 ± 2e-05
G41A C70A | 0.000253 ± 5.4e-05
A52G A64G C68U | 6.71e-05 ± 2.2e-05
G51U U55C G62A G66C C67U | < 1e-05
G40U A53G U65C | 4.92e-05 ± 1.4e-05
G59U G66C | < 1e-05
U46G U49G C50U A52G | < 1e-05
G40U A48C C50U | < 1e-05
C58A U65G C70U | 6.2e-05 ± 2.7e-05
U54A C67A C68U | 9e-05 ± 2.1e-05
U49C C50U U56G | < 1e-05
G43U U47C G63A | < 1e-05
U55A C67U C68G C70A | 0.000233 ± 8.8e-05
U45G C50U U56G G59C | < 1e-05
U45A A52U C67A | 8.33e-05 ± 2.5e-05
G40C U47A U65G | 0.000652 ± 0.00017

Variant | self-cleavage kobs at 2500 uM GlcN6P [s⁻¹]
A52U U54A C67U | 0.000187 ± 5.3e-05
G44A A52U G60U | < 1e-05
G43U A48C C61G | < 1e-05
G51U G59C G66U | < 1e-05
A53G G63U C71A | < 1e-05
G41C G43U G59A | < 1e-05
A42G G44C C58A C68U | < 1e-05
A42G G43A G62U | < 1e-05
U47G C50A A64C | 0.000126 ± 3.2e-05
U65G C67G C68G | 3.55e-05 ± 1.4e-05
G66A C67U C70U | 0.000488 ± 0.00017
G44U U56C U57A | < 1e-05
U46C G60U C70U | < 1e-05
U46G U55C G66A | 0.00233 ± 0.00084
G40U G41A C67A C70U | 0.000143 ± 3.7e-05
U55G C58G G60U | < 1e-05
U55G C70U C71G | 7.27e-05 ± 1.7e-05
A48G C58G G63A C70A | 7.77e-05 ± 3.7e-05
G41U U57G C70A | 0.000107 ± 1.9e-05
G51U U54G C61U | < 1e-05
G62U C68U C71A | < 1e-05
U45C U56C G63A | < 1e-05
U56G C58A C71A | 3.99e-05 ± 1.6e-05
C58U C61G G66U | 6.41e-05 ± 2.3e-05

Variant | self-cleavage kobs at 2500 uM GlcN6P [s⁻¹]
G43C A48G | < 1e-05
G41A G63U C70U | < 1e-05
G44C U46G G63A | < 1e-05
G43A G62C A64U C70G | < 1e-05
U45C G66U C70G | 7.12e-05 ± 3.1e-05
U47A U55C U69C | 0.000127 ± 4.1e-05
G44U U45A U47A | 0.000474 ± 0.0002
G44U U49C C61A | < 1e-05
G41C G51U U69C | < 1e-05
G51U A52U U54G U55C | < 1e-05
C50U A64U C71U | < 1e-05
G41C A42G U55A | 9.68e-05 ± 2.6e-05
U47G C68A C71G | 0.00013 ± 3.6e-05
A42U G43U U46A C70U | 6.44e-05 ± 2.4e-05
G43U U54A C58U G59C C61G G62C A64G U65A G66U | < 1e-05
U47C C58A C68U | 3.93e-05 ± 1.6e-05
U47C U56A A64G | 0.000616 ± 0.00019
A64G U65C | 8.88e-05 ± 2.5e-05
G44A U46A A48U A53C | < 1e-05
G43C A53U C58G A64G | < 1e-05
A42G C50G G63U | < 1e-05
C50G C58A G66A | 0.000121 ± 4.3e-05
